Experimental data as given in the DeepSol protein solubility set.

Experiment: soluble on expression in E. coli; label from the status in PepcDB or PDB records

Soluble on expression in E. coli, not soluble:
MGSDKIHHHHHHMSRTITIDPVTRIEGHATITIRLDDAGSVADARLHVTEFRGFEAFCVGRSIWEMPGITARICGICPISHSIASARAGDAILGVDIPPAAEQLRRIANLASLIQSHALSFFHLCAADLLLGMDHDPSRRSLWGLLESRPDVARRGIRLRQIGQQIVSNLAGERVHPSWAVPGGVREPLDAERRRKVVELLPEGIAIIRSAFELLDEIYGRHGAEVGTYGDFPSLFAGLVGEDGGLEHYDGMLRFTDSSGAVVEEVPPDHYDLAIGERSEPWSYMKFPFYRNHAGRDGGGMFRVGPLARLNLCERAGTPEADRELQTFRQLRGTGGVVTGSFHYHHARLIEILHALERIGELLDDPAILDRHVRSEAGVNRRHGVGFCEAPRGTLFHDYEVDDDGLILRLNLLIATGQNNLAMNRTILEVARSHIKGGKVSEGILNRIEHGIRAYDPCLSCATHVYGRMPFQVLLLAPDGTVVDEIAS
MGSDKIHHHHHHMSRVACAYIIRKATGEHECCETLEEHVQRSLEVWLGRLKKCYSSAVNRIIYSQGSQTLASVLGDPVAVAIVLHDIGKAVPAYQKKRIMRGRVQYRHELVSGALSLLAIEKAADMAGIGRNDRGLYVFEVPLAVMMHHESISMGVLAGELGERFVTLSVASLMLEDYYDGELWGLERLARTVKNMGAVGDAVVDVLKILSGSPPSRKEVLIALGRLKAYSLSGDTLSRLSARARVAGILHPLVVADSIAANEGRKRCNGDGGTWIVKRALGRDSQEPAEPCLS
MGSDKIHHHHHHMSSGTENDQFYSFDESDSSSIELYESHNTSEFTIHGLVFPKLISVTSQDSEFDINEDEDGVDTIYEGMLDAPLTKNNKRILCEGSVPNLSYECLTTKGIFERMLQRVDHLQPIFAIPSADILILLQHYDWNEERLLEVWTEKMDELLVELGLSTTANIKKDNDYNSHFREVEFKNDFTCIICCDKKDTETFALECGHEYCINCYRHYIKDKLHEGNIITCMDCSLALKNEDIDKVMGHPSSSKLMDSSIKSFVQKHNRNYKWCPFADCKSIVHLRDTSSLPEYTRLHYSPFVKCNSFHRFCFNCGFEVHSPADCKITTAWVKKARKESEILNWVLSHTKECPKCSVNIEKNGGCNHMVCSSCKYEFCWICEGPWAPHGKNFFQCTMYKNNEDNKSKNPQDANKTLKKYTFYYRLFNEHEVSAKLDWNLGQTLGTKVHALQERIGISWIDGQFLSESLKVLNEGRTVLKWSFAVAYYSDASHNLTKIFVDNQMLLANAVESLSELLQIKTPEVIMKRRPEFYNKAGYVENRTTALMECGRELLCKGICKAAE
MGSDKIHHHHHHMSSLATLAQPLADGTFQCLACQWRCTLAPGEIGRCHMRIGREEGIELINHGMISGAAIGPVEDHRLWHFFPDTTVLAIGGWGYALPIDQQRGPYGTLPTEPAKQRRLEPQRAADFALERLCRGVVWAFGEPAVNFEYVLALLQLSRAASRYTAIVTSGMLSLEALNELGPYLNGISLDLRGFSDNAYQRLGGISDWRHILRFAEEAQQRWKCHIEITTRIHHGVNDHPDELRDLVEWIKKTLGEETPWHVLPGDAGSETAAATKQARRIGHEGGLQFIYGHEPNQPTRCPSCHATLINRQHGVSRRVGLDGNRCSNCGYATNLYLSIFKVHRT
MGSDKIHHHHHHMSSNQIAIKVTNLSKCYQIYSQPWDRLKQFFAPKIKSVIRRESRSYFKEFWALRDVSFSINRGETVGIIGRNGAGKSTLLQMICGTLTPTVGDIEVNGRVAALLELGAGFNPEFSGRDNVYLNGSVLGLSKSEIDKKFQEILDFADIGDFIDQPVKTYSSGMYVRLAFAVQACIDPEILIVDEALAVGDIGFQYKCFKRMEMLKQKGTTIIMVTHSTGSILEYADRCLVMSDGMLVGNTTDVLAAVLAYEKGMLMTERTDTAEKKEAVSQTGEIASADELSAIQNTQTNAEVDEKRFGSGRAIIEDFSIMKADGTPLSEKPLVKPNEEIYFSFKLNSSENINDVVLGVSLSRTQGGDIWGDNNIFAGHKIDLAPGLRKLKYKVKLPINTGDYLVHCGLACFNNGEREELDQRRPIAKVKFWSSRELGGVIHSPVNVIEGDELS
MGSDKIHHHHHHMSTDNYYIRRRLLSSLTAHLDQPEITVLVGPRQSGKTTILKRLESELRAGGRKTLWLNLDFEDDFRHVASEGALLQKIQLELGSGGGVVFIDEIQRRENAGLFLKGLYDQGLPWKFVVSGSGSIELKEKISESLVGRKRLFELSTVSFGEFADFRTGYRYTDRLRDYFRTEPSKTDQLFREYLMYGGYPRVVLADTHQEKMATINEIFRSYLEKDIVYLLRVEKSESFSNLVRVLATQSGKMVSYSELSATLGLSLATVKLYLWYLEKTYIIDKVTPWYTNIRKEITKAPVYYFRDIGLRNFAAGSFGALSDSEAGFAFQNVIHAMLKERFPLADSTIHYWRTKDKAEVDFVLRSGDTVTPLEVKYRDMKKLDVRRSFLGFLTRYHPEFGYIVNRNYSDEALICQTRVRCLPYWELMFEEAFP
MGSDKIHHHHHHMSTEHLLLVSLLKKLKDDALVLPTLPEVAMRVQEVVGRSDASLKQVAEVIGQDAAISARIIKVANSALYSRGVPAESINSAVSRIGLIQIKSIATSVAMEQLFISTNEMVWEVMDEVWRTSIDVTAAACAMLQMYNKRHSTSRLNFDTLTLAGLVHNIGALPVLTEAEAQPHLFTSIDQLRALVRKMQGPLGRAVLKSWDFSTEVMEVVERWADLPYLPDHVTYLDFIRAAAFYTGELRAGTELEQRLGVFVARGLPVTTDDLASDEFMEKFHSIRESYQ
MGSDKIHHHHHHMSTLLQHVNLTEFVDVARQLGLDPYRQLRQAGIRPTALVDPEMRVPAKSVMQLLEDSAQLAGLEDLGLRVAEARELTTLGPLWTVMREGATLRNALGAMARYLHLLNEALDLRLEEVGDTAVVRLEFLVSVDGSMRQSTEFIICLWFRLFKLLSGDAWKPRSVCFTHAAPASLATHRRVFGVPVRFHQDFDGILLSAADLDVAGTTSDTALGRHAREFLDTKLAQSDSTMPDKVRKLVFALLPTGECGAEQVARQLGIDRKTMHRHLAAYGQNYLSVVDAVRVELVTRYLKNNERPLSDVAILMGFSSLSAFSRWFATRYGCSVSAWRRQRTAPEIRR
MGSDKIHHHHHHMSTNALRGKAAIVGFGDSYCKRGEVKSAMRLAQEATRRALDDAGLNKDEIDGLLTGRAPMSDQRHQWNNIFAAYNKITPRYASEITIHAAGMNSMLKHAALAVTSGVARFVLCVGADAAASQPTVRAQIGGMDADPEFEQPYEPIIPTIYAQMACRLMHEYGMSEEDFSAVAVQCQEWAVHHPYAAKGHKGLVTIDDVMRSPMIASPLRLWHCAPWGPPGTAGAVIVTDADTARSMSDRPIYLLGAGECQTHEYLSDRMALRSSILPLGDLPNITSTGCRVAGDAAFSMAGLRPDDINVVQTASQFAHVELQVLAELGFTDLRAAGEFVRSGATGPQGALPTNTNGGWLSFGQPGVSCVMDSISETIRQLRGEALGLQVQDAHIGLVHGNGGMQACHSVAILGREP
MGSDKIHHHHHHMSTTPTTRLILETLLPHLKVAAAYAHFLQPKIAALPAKGEGNNFFSAALTDADVAIQNLVEVVLLGTFPDIRFYGEEYASSNNTKYFRATELGSKGDYLVTLDPIDGTKFYMDGHSNYQIILSILNSDDFEAVIAISPAQNIYFYALRGEGAFKGTLEMSLEACAPLHITSAKPAILLGWAMNSIGHLLKDRYQVIDIAADYSSDIQIPNLNGILTGDLSGAVIKSGKFIDVAALAFIVKEAGWIVTTLDGSTLPPLHTCQNYSLPGLVIATSKSVHQDLLKAVQSLAV
MGSDKIHHHHHHMSTVQDASSVGSLFGAEAAKTSKSGSSDTQDRFLSLLVAQMKNQDPLNPLDNAEVTSQMAQLSTVEGIENMNKSLEALASSMGASQMSQAANLIGHAVLVPGNAVGPGQLENLMGFELTRPADKVTLDIHDAGGNLVRSVDLGPRDAGVNVVAWDGLTGSGAVAPAGAYSFKVSAVQGGQAQSSIALNVGLVNSVSQNSEGVQLNLAGNGSVGYADIREIF
MGSDKIHHHHHHMSVQISVVAATLNEIDNIEQFIDGVEGVLKGMEFEIIVVDDNSSDGTKEYLARRMNEDTHVVVIENPYRFGMLRSLKLGIEKAGGEIVLVMDADMQHPPSAIPKLISRIVDGCDIVVGSRYVDGGSAGDRDAFRAALSRGAEFLAHALVPSSRMTSDPMSGFFAFRRDLRHDFAYRQTFATADYGAKILLIILAENRHAKVCDVGYVFQSRMRGKSKIVSGTSFLKRYLAELFEVMKLERRYRHMQ
MGSDKIHHHHHHMTAATQAKHTPDDLSVAPRDIRFDLTSAQKGHWLGGDPVGTAVFNALSLTFPDGERMFMDAVKAYRDRLSGKLLEDAKGFIAQEAIHSREHHHLNSLIDRERYPVAEIEETIRGRVKMARERGPMAMLISTIALEHFTAMMAEMHARHRNLFDTTDPEIEKLWRWHAVEETEHKAVAYDVFLEVTKDWSPLKRYMIRCRAMVFVTIMFTRNISRYAARLLEADGYTPKAALKAVKRFVWGDPGIFRRGWKTYFAWYRPGFHPWDQDDRPLVADWMAEFNAAAVRV
MGSDKIHHHHHHMTAMRGDGGRVLHTGFGVVRGVLFDIDDTLVDLEYAMTTALRDVSEHLLPGLDQAGWEKFGRIFTHETTHFYDRYLAGELTFNEQRLLRGRAALGHFGVELEEGEESHAWVTSYAALQHGYVRAFEDVAPVLDALDAAGIPYGAVSNNVHDYQRVKLDAAGLQRITVLVGTDTLGVPKPDPAIYLEGVRLLGSSAAETLYVGDNRLLDAEGSTAAGLLGVWLNRSGETESAFAGHQVGSLAELLG
MGSDKIHHHHHHMTAQSSHMLVLQSTVTSAFKTIASEKQGLEALEEALLGYLSSAFQAAVQTIRNANGHVVITGLGKSGHIGAKIAATLASTGTPAFFVHAAEANHGDLGMIGSDDVILALSWSGETSELSGIINHAARFRTPLIAMTSGEHSVLGRQADIVLLLPKIEEACPHGLAPTTSTIMQLAMGDALAVALLEMRGFTATDFKIYHPGGSLGASLKYVRDIMHQGESIPLVAQGTAMAKAMSVLVEKHFGCVGVVNQEGELIGIVTDGDLARNIHVNLSKFNVDELMTKDPKIVEPNTLVGAATAFINEHHIGAFFVVENKKPIGIVHFHDLLRIGAA
MGSDKIHHHHHHMTAQTHNDVAVCWNQNANQWTSDVRNGYDVYRDFFTLPAFLQFLPTMADLNVIDFGCGEGSNTRHFAQMGAKVVGIDISNGLIEHARQAERVDPVGITYKIVSYSSDTGFPASSFDAVVSTMALMDGPDLQGAMHEAYRLLRPGGFVAFSVLHPCFITPGWQWQKDENGQTTGLCTSRYFDKSGFTENWKFGNRPKDENVAPFAVPRFPRTIGDYINAVASVGFRISKIEEPQPTEEACKAIPQLRRWRDLGAFLLLVIAERPK
MGSDKIHHHHHHMTDEGALFYEHSRRALSEIQNAAALLDQRKINATGRLRMSVPVLFGQLFAAPLMVKFAQQHADLQLEISFNDRNVDLIEEGFDLCIRIGALPDTTQLVAKPIGEHRMLLCASPDYLNKAGPVEHIEDLDQHATIADPHFGQMQKWRLQKENDEPLFIKPKAKLLLNDLQAIKNAALAGAGIAWLPDWLIQNELQDGKLVQVLDAMSSTAFPIHLVWPTLPFMPLKTRLAIDYLAQHLPPELNK
